Article PMC3462211, “3D Domain Swapping Causes Extensive Multimerisation of Human Interleukin-10 When Expressed In Planta” (PLoS ONE, 2012)
One block for each molecule: values may come before it.

Assays:
[1] = target: human IL-10^mono fused to the C-terminus of constant domains 2 and 3 of human immunoglobulin A2m1 (Fcα-hIL-10^mono), plant produced (human) (UniProt P22301); assay: non-reducing SDS-PAGE with Western blot; soluble plant proteins (crude leaf extract, desalted on G25 Sephadex, filter sterilised) separated under non-reducing conditions on a NuPAGE 12% Bis-Tris gel; detected with antibodies against hIL-10 or IgA
[2] = target: human IL-10 fused to the C-terminus of constant domains 2 and 3 of human immunoglobulin A2m1 (Fcα-hIL-10), plant produced (human) (UniProt P22301); assay: as above
[3] = target: the molecule itself; assay: as above
[4] = target: the molecule itself; assay: non-reducing SDS-PAGE with Western blot; 50 ng recombinant E. coli produced hIL-10 (R&D Systems) separated under non-reducing conditions on a NuPAGE 12% Bis-Tris gel; detected with an antibody against hIL-10

- stoichiometry N [1]: 2
Molecule: human IL-10^mono fused to the C-terminus of constant domains 2 and 3 of human immunoglobulin A2m1 (Fcα-hIL-10^mono), plant produced (from UniProt P22301 19-178) (Fc fusion)

- stoichiometry N [2]: 2
Molecule: human IL-10 fused to the C-terminus of constant domains 2 and 3 of human immunoglobulin A2m1 (Fcα-hIL-10), plant produced (from UniProt P22301 19-178) (Fc fusion)

B1: plant produced human interleukin-10 (natural protein, UniProt P22301 19-178, looked up)
chain: SPGQGTQSENSCTHFPGNLPNMLRDLRDAFSRVKTFFQMKDQLDNLLLKESLLEDFKGYLGCQALSEMIQFYLEEVMPQAENQDPDIKAHVNSLGENLKTLRLRLRRCHRFLPCENKSKAVEQVKNAFNKLQEKGIYKAMSEFDIFINYIEAYMTMKIRN
notes: signal peptide in the construct; human interleukin-10, complete native open reading frame (178 amino acids including the N-terminal signal peptide); the NcoI site adds two extra amino acids to the N-terminus of the signal peptide; Secreted through its own signal peptide; also called hIL-10; human IL-10; source: Nicotiana benthamiana leaves, agro-infiltrated (transient), in desalted crude extract
- stoichiometry N [3]: ≥ 2

B2: recombinant E. coli produced human IL-10 (natural protein, UniProt P22301 19-178, looked up)
chain: B1 chain
notes: human interleukin-10, recombinant, E. coli produced, 18 kDa on the blot; also called r hIL-10; E. coli produced hIL-10; source: bought: R&D Systems (recombinant, E. coli produced)
- stoichiometry N [4]: ≥ 2
